The results in this text go back to patent US20260263595A1 (BETH ISRAEL DEACONESS MEDICAL CENTER, published 2026).

The experiment addresses T1, human CD40 on human B cells (CD20+ cells of human PBMCs) (human, UniProt P25942 21-277).
T1 construct: whole, on cells; also called native CD40 on human blood B cells; human CD20+ B cells
Description: flow cytometry on human PBMCs, CD20+ gate (FIG. 2A). Here is the method:
The CD40 antibody 2C10 was characterized with respect to its ability to affect B cell activation both using rhesus monkey and human peripheral blood mononuclear cells (PBMCs). CD20 expression was chosen as being an indicator of B cells, and expression of CD23, CD80, and CD86 is associated with B cell activation. 2C10 was first assessed for its ability to bind to […]. Rhesus or human PBMCs were incubated with fluorochrome-conjugated 2C10 and an anti-CD20 antibody. Flow cytometric analysis was used to confirm the binding of 2C10 to human and rhesus CD20+ B cells (FIG. 2A). In another set of experiments, PBMCs from either rhesus monkey or humans were cultured either in the presence or absence of CD154⁺ Jurkat D1.1 cells, an immortalized T lymphocyte cell line. Activation of B cells was determined by measuring expression of three markers (CD23, CD80, and CD86) in CD20⁺ cells present in the PBMCs.
For orientation: A flow cytometer gives signals particle by particle.

T1 sequence (P25942 21-277): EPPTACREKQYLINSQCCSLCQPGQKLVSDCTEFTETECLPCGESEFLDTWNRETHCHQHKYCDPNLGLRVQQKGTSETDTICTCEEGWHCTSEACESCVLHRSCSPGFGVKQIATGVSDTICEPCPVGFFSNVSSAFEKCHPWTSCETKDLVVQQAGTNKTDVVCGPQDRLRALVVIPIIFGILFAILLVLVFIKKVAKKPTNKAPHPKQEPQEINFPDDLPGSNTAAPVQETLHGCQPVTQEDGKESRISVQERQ

B1: anti-CD40 antibody 2C10 (antibody, mouse IgG1, V domains shown)
VH: QVQLQQSGAELAKPGASVKMSCKASGYTFTNYWMHWVKQRPGQGLEWIGYINPSNDYTKYNQKFKDKATLTADKSSNTAYMQLGSLTSEDSAVYYCARQGFPYWGQGTLVTVS
VL: QIVLTQSPAIMSASPGEKVTMTCSASSSVSYMHWYHQRSGTSPKRWIYDTSKLASGVPARFSGSGSGTSYSLTISSMEAEDAATYYCHQLSSDPFTFGSGTKLEIK
notes: also called 2C10 antibody; APC-conjugated 2C10
As for B1, the binding result is reported as “binds”.
